Laboratory results from patent US20240011017A1 (Genentech, published 2024).

B2: VZV protein gB, soluble (captured on beads or assayed directly in supernatants) (other)
chain: VSPSSFYESLQVEPTQSEDITRSAHLGDGDEIREAIHKSQDAETKPTFYVCPPPTGSTIVRLEPTRTCPDYHLGKNFTEGIAVVYKENIAAYKFKATVYYKDVIVSTAWAGSSYTQITNRYADRVPIPVSEITDTIDKFGKCSSKATYVRNNHKVEAFNEDKNPQDMPLIASKYNSVGSKAWHTTNDTYMVAGTPGTYRTGTSVNCIIEEVEARSIFPYDSFGLSTGDIIYMSPFFGLRDGAYREHSNYAMDRFHQFEGYRQRDLDTRALLEPAARNFLVTPHLTVGWNWKPKRTEVCSLVKWREVEDVVRDEYAHNFRFTMKTLSTTFISETNEFNLNQIHLSQCVKEEARAIINRIYTTRYNSSHVRTGDIQTYLARGGFVVVFQPLLSNSLARLYLQELVRENTNHSPQKHPTRNTRSRRSVPVELRANRTITTTSSVEFAMLQFTYDHIQEHVNEMLARISSSWCQLQNRERALWSGLFPINPSALASTILDQRVKARILGDVISVSNCPELGSDTRIILQNSMRVSGSTTRCYSRPLISIVSLNGSGTVEGQLGTDNELIMSRDLLEPCVANHKRYFLFGHHYVYYEDYRYVREIAVHDVGMISTYVDLNLTLLKDREFMPLQVYTRDELRDTGLLDYSEIQRRNQMHSLRFYDIDKVVQYDSGTAIMQGMAQFFQGLGTAGQAVGHVVLGATGALLSTVHGFTTFLSNP
notes: also called VZV gB

Tests used:
[1] = biological target: B2; experiment: cell-based immunofluorescence validation (FIG. 16): gB on beads or in supernatants, HAVCR1 on cells
[2] = biological target: T1, MUSK expressed on cells (gD-GPI construct or full-length protein) (human, UniProt O15146 24-869); experiment: cell-based immunofluorescence validation (FIG. 15): gB on beads or in supernatants, MUSK on cells
T1 construct: whole, on cells
T1 sequence: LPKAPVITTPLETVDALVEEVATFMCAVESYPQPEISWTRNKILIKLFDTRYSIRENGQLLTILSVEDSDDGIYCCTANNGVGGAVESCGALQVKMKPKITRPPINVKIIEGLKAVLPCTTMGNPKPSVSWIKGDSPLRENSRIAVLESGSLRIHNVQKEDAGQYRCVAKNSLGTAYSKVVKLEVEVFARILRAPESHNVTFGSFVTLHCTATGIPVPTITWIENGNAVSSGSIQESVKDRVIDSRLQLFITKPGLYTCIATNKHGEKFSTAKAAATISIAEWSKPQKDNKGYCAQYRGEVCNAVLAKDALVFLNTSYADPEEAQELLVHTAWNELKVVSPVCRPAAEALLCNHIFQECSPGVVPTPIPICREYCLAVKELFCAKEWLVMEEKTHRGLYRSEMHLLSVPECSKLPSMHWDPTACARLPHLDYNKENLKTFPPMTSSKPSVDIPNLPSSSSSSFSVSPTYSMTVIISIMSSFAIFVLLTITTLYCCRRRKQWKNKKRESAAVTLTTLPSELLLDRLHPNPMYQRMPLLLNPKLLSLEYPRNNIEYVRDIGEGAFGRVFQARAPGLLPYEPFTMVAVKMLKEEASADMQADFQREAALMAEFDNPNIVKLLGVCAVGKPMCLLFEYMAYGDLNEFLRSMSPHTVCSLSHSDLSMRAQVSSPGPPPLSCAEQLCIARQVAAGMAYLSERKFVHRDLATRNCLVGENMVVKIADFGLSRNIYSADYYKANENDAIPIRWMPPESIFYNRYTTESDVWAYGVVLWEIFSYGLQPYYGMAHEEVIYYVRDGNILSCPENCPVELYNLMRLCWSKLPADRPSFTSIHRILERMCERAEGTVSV

[3] = biological target: T2, VZV protein gC, soluble (captured on beads or assayed directly in supernatants) (Varicella zoster virus, UniProt P09256 54-559); experiment: cell-based immunofluorescence validation (FIGS. 14B and 22): soluble gC on cells with ICAM1
T2 construct: also called VZV gC
T2 sequence: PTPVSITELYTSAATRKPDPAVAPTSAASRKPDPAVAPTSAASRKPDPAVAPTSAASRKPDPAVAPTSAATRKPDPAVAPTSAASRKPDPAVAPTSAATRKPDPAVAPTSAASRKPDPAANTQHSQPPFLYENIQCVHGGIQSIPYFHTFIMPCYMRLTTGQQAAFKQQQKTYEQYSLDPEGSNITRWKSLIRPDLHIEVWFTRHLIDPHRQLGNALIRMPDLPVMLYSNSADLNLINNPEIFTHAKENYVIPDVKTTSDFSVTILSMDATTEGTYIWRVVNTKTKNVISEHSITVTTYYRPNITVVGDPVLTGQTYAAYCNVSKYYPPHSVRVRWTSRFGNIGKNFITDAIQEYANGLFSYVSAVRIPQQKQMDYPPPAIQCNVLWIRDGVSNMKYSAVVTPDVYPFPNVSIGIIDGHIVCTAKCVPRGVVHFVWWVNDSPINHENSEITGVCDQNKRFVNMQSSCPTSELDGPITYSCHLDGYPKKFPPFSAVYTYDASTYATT

[4] = biological target: T3, HHV8 protein KCP expressed on cells (gD-GPI construct or full-length protein) (Human herpesvirus 8, UniProt Q2HRD4 20-522); experiment: cell-based immunofluorescence validation (FIG. 17): receptor in supernatants, KCP on cells
T3 construct: also called HHV8 KCP
T3 sequence: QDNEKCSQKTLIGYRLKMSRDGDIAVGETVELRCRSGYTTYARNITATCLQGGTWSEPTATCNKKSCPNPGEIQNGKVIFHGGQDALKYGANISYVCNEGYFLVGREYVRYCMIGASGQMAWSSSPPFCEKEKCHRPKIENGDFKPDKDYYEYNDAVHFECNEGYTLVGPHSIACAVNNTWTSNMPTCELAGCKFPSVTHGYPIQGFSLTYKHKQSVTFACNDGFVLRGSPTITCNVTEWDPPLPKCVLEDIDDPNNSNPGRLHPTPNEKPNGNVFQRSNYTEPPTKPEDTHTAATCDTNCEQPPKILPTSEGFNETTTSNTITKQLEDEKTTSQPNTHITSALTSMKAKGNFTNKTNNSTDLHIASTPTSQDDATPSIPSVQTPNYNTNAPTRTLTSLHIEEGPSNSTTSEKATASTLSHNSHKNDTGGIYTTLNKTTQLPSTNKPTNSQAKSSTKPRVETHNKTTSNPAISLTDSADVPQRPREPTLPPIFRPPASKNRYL

B1: HAVCR1 expressed on cells (gD-GPI construct or full-length protein) (receptor)
chain: SVKVGGEAGPSVTLPCHYSGAVTSMCWNRGSCSLFTCQNGIVWTNGTHVTYRKDTRYKLLGDLSRRDVSLTIENTAVSDSGVYCCRVEHRGWFNDMKITVSLEIVPPKVTTTPIVTTVPTVTTVRTSTTVPTTTTVPMTTVPTTTVPTTMSIPTTTTVLTTMTVSTTTSVPTTTSIPTTTSVPVTTTVSTFVPPMPLPRQNHEPVATSPSSPQPAETHPTTLQGAIRREPTSSPLYSYTTDGNDTVTESSDGLWNNNQTQLFLEHSLLTANTTKGIYAGVCISVLVLLALLGVIIAKKYFFKKEVQQLSVSFSSLQIKALQNAVEKEVQAEDNIYIENSLYATD
notes: whole, on cells
binding result [1]: binds

B2
binding result [2]: binds

B3: ICAM1 expressed on cells (gD-GPI construct or full-length protein) (receptor)
chain: QTSVSPSKVILPRGGSVLVTCSTSCDQPKLLGIETPLPKKELLLPGNNRKVYELSNVQEDSQPMCYSNCPDGQSTAKTFLTVYWTPERVELAPLPSWQPVGKNLTLRCQVEGGAPRANLTVVLLRGEKELKREPAVGEPAEVTTTVLVRRDHHGANFSCRTELDLRPQGLELFENTSAPYQLQTFVLPATPPQLVSPRVLEVDTQGTVVCSLDGLFPVSEAQVHLALGDQRLNPTVTYGNDSFSAKASVSVTAEDEGTQRLTCAVILGNQSQETLQTVTIYSFPAPNVILTKPEVSEGTEVTVKCEAHPRAKVTLNGVPAQPLGPRAQLLLKATPEDNGRSFSCSATLEVAGQLIHKNQTRELRVLYGPRLDERDCPGNWTWPENSQQTPMCQAWGNPLPELKCLKDGTFPLPIGESVTVTRDLEGTYLCRARSTQGEVTRKVTVNVLSPRYEIVIITVVAAAVIMGTAGLSTYLYNRQRKIKKYRLQQAQKGTPMKPNTQATPP
notes: whole, on cells
binding result [3]: binds

B4: LILRB1 (in supernatants) (receptor)
chain: GHLPKPTLWAEPGSVITQGSPVTLRCQGGQETQEYRLYREKKTALWITRIPQELVKKGQFPIPSITWEHAGRYRCYYGSDTAGRSESSDPLELVVTGAYIKPTLSAQPSPVVNSGGNVILQCDSQVAFDGFSLCKEGEDEHPQCLNSQPHARGSSRAIFSVGPVSPSRRWWYRCYAYDSNSPYEWSLPSDLLELLVLGVSKKPSLSVQPGPIVAPEETLTLQCGSDAGYNRFVLYKDGERDFLQLAGAQPQAGLSQANFTLGPVSRSYGGQYRCYGAHNLSSEWSAPSDPLDILIAGQFYDRVSLSVQPGPTVASGENVTLLCQSQGWMQTFLLTKEGAADDPWRLRSTYQSQKYQAEFPMGPVTSAHAGTYRCYGSQSSKPYLLTHPSDPLELVVSGPSGGPSSPTTGPTSTSGPEDQPLTPTGSDPQSGLGRHLGV
binding result [4]: binds

B5: FLRT3 (in supernatants) (receptor)
chain: KSCPSVCRCDAGFIYCNDRFLTSIPTGIPEDATTLYLQNNQINNAGIPSDLKNLLKVERIYLYHNSLDEFPTNLPKYVKELHLQENNIRTITYDSLSKIPYLEELHLDDNSVSAVSIEEGAFRDSNYLRLLFLSRNHLSTIPWGLPRTIEELRLDDNRISTISSPSLQGLTSLKRLVLDGNLLNNHGLGDKVFFNLVNLTELSLVRNSLTAAPVNLPGTNLRKLYLQDNHINRVPPNAFSYLRQLYRLDMSNNNLSNLPQGIFDDLDNITQLILRNNPWYCGCKMKWVRDWLQSLPVKVNVRGLMCQAPEKVRGMAIKDLNAELFDCKDSGIVSTIQITTAIPNTVYPAQGQWPAPVTKQPDIKNPKLTKDHQTTGSPSRKTITITVKSVTSDTIHISWKLALPMTALRLSWLKLGHSPAFGSITETIVTGERSEYLVTALEPDSPYKVCMVPMETSNLYLFDETPVCIETETAPLRMYNPTTTLNREQEKEPYKNPNLP
binding result [4]: binds
